The text below walks through data of paper PMC12153317.

The assay concerns the target specific HAs not engaged in ELISA (soluble HA ectodomains) (influenza virus). Nature of the assay: ELISA. (In general: ELISA stands for enzyme-linked immunosorbent assay.)

pKd: −log10 of the molar value.

What is called pKd is the negative decadic logarithm of the Kd, by convention in mol/L.

As for CR8071, the pKd is 9.46.
